In PMC7416571 (Journal of molecular biology, 2019):
Changes are numbered by the printed parent chain.

Key:
Test in all cases: AUC
[1] = target: T1, phage λ terminase large subunit TerL^λ-D178N (phage λ, UniProt P03708 1-641, D178N)
T1 sequence (looked up): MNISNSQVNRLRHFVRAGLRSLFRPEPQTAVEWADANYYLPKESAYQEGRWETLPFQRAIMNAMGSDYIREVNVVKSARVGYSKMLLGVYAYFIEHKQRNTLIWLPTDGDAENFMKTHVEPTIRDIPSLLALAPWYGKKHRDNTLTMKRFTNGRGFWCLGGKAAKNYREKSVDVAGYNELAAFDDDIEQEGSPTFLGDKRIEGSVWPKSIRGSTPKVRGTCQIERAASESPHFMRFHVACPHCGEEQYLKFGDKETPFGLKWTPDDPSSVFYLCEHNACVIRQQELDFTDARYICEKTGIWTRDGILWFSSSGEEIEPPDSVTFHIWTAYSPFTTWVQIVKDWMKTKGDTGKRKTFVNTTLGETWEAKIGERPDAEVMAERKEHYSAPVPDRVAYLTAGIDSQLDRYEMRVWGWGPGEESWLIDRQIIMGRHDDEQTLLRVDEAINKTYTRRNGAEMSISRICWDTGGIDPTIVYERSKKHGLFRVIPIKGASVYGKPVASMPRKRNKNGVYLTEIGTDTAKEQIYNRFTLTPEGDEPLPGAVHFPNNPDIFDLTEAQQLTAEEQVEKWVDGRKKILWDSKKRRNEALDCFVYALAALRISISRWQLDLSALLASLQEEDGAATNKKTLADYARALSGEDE

AUC = target: the molecule itself
[2] = target: T2, phage λ terminase large subunit TerL^λ, wild type (phage λ, UniProt P03708 1-641)
T2 sequence (looked up): T1 sequence (looked up) with N178D

Measured: binding result

B1: phage λ terminase small subunit TerS^λ (natural protein, UniProt P03707 1-181, looked up)
chain: MEVNKKQLADIFGASIRTIQNWQEQGMPVLRGGGKGNEVLYDSAAVIKWYAERDAEIENEKLRREVEELRQASEADLQPGTIEYERHRLTRAQADAQELKNARDSAEVVETAFCTFVLSRIAGEIASILDGLPLSVQRRFPELENRHVDFLKRDIIKAMNKAAALDELIPGLLSEYIEQSG
binds: all assays above
